The values below come from patent US20120321591A1 (COVX TECHNOLOGIES IRELAND, published 2012).

Bridges are numbered along the chain shown (N, C = ends). Where no end group is shown, it is not given here. [ ]: non-standard residue; d: D form. 0P linker = not defined here; Nle = CCCC[C@H](N)C(=O)O

For orientation: IC50 means the concentration that inhibits the measured activity by half.

Sequences and labels used below:
T1: human angiopoietin-2 protein (human, UniProt O15123 19-496)
T1 construct: also called Ang-2; Ang2
T1 sequence (looked up): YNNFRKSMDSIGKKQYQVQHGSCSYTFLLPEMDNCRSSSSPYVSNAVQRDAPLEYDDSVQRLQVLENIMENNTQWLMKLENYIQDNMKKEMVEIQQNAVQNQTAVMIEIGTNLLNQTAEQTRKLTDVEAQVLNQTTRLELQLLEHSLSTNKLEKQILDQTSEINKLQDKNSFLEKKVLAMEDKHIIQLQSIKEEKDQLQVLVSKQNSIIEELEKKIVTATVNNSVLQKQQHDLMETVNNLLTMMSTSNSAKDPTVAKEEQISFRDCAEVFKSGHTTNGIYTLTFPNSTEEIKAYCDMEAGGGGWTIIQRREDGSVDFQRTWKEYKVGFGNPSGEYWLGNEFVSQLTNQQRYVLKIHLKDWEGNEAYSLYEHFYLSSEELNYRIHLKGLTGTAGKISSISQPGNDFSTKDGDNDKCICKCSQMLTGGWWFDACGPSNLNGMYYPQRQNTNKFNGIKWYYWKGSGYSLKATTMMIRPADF

B1: Compound 4033, peptide plus linker (T) (peptide)
peptide: QK(Ac)YQPLDEK(0P linker)DETLYDQFMLQQG
modifications: reading uncertain; also: N-terminal acyl cap, C-terminal amino cap, printed as Q(Kac)Y QPL DEK(0P) DET LYD QFM LQQ G
notes: also called 4033 T
B2: Compound 4027, peptide plus linker (T) (peptide)
peptide: QKYQPLDELDK(0P linker)TLYDQFMLQQG-NH2
modifications: reading uncertain; also: N-terminal acyl cap, printed as QKY QPL DEL DK(0P)T LYD QFM LQQ G
notes: also called 4027 T
B3: Compound 4060, peptide plus linker (T) (peptide)
peptide: QHYQPLDELDKTLYDQFMLQQG-NH2
modifications: not fully specified (residue 11, N-terminus); printed as QHY QPL DEL DK(0P)T LYD QFM LQQ G; also: N-terminal acyl cap
notes: also called 4060 T
B4: Compound 4059, peptide plus linker (T) (peptide)
peptide: QRYQPLDELDKTLYDQFMLQQG-NH2
modifications: not fully specified (residue 11, N-terminus); printed as QRY QPL DEL DK(0P)T LYD QFM LQQ G; also: N-terminal acyl cap
notes: also called 4059 T

In the first assay the target is T2, recombinant human VEGF165 (human, UniProt P15692-4 27-191).
T2 construct: also called rhVEGF165
T2 sequence (P15692 other isoform, or with tags, fused parts or gaps limits assumed): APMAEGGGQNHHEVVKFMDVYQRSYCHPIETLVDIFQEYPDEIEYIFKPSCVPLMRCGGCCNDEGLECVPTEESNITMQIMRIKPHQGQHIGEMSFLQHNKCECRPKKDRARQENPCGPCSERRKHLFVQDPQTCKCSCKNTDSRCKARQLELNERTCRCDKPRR
The assay is described as follows: competition ELISA: VEGF165 binding to coated VEGFR2/Fc.
As for Ac-VEPNCDIHVMWVWECFERLLK(Ac)-NH2 (disulfide 5-15) [[VEGF-Peptide] SEQ ID NO:68], the IC50 came to 10 nM. For Ac-VEPNCDIHVMWVWECFERLYGG-NH2 (disulfide 5-15 (inferred)) [[VEGF-Peptide] SEQ ID NO:52], the IC50 is 32.3 nM.

As to Ac-VEPNCDIHVMWVWECFERLYGL-NH2 (disulfide 5-15 (inferred)) [[VEGF-Peptide] SEQ ID NO:72], the IC50 came to 4.8 nM. Ac-VEPNCDIHVMWVWECFERL[Nle]K-NH2 (disulfide 5-15) [[VEGF-Peptide] SEQ ID NO:54]: the IC50 was 28.6 nM. On to Ac-VEPNCDIHVMWVWECFERL[dL]K(Ac)-NH2 (disulfide 5-15) [[VEGF-Peptide] SEQ ID NO:60], for which the IC50 was found to be 25 nM.

Turning to Ac-VEPNCDIHVMWVWECFERLYGIF-NH2 (disulfide 5-15 (inferred)) [[VEGF-Peptide] SEQ ID NO:40], the IC50 came out at 78.3 nM. Regarding Ac-VEPNCDIHVMWVWECFERLYGWG-NH2 (disulfide 5-15 (inferred)) [[VEGF-Peptide] SEQ ID NO:42], the IC50 was determined as 68.2 nM. The same measure, in the same setting: next, Ac-VEPNCDIHVMWVWECFERLYGIL-NH2 (disulfide 5-15 (inferred)) [[VEGF-Peptide] SEQ ID NO:50]: 34.4 nM; Ac-VEPNCDIHVMWVWECFERLYGLS-NH2 (disulfide 5-15 (inferred)) [[VEGF-Peptide] SEQ ID NO:71]: 5.4 nM; Ac-VEPNCDIHVMWVWECFERLYGPW-NH2 (disulfide 5-15 (inferred)) [[VEGF-Peptide] SEQ ID NO:66]: 18.7 nM. For Ac-VEPNCDIHVMWVWECFERLYGGG-NH2 (disulfide 5-15 (inferred)) [[VEGF-Peptide] SEQ ID NO:61], the IC50 turned out to be 23.6 nM.

For Ac-VEPNCDIHVMWVWECFERLYGEF-NH2 (disulfide 5-15 (inferred)) [[VEGF-Peptide] SEQ ID NO:70], the IC50 turned out to be 9.3 nM. For the molecule Ac-VEPNCDIHVMWVWECFERLSGGG-NH2 (disulfide 5-15 (inferred)) [[VEGF-Peptide] SEQ ID NO:45], the IC50 came to 51 nM. Turning to Ac-VEPNCDIHVMWVWECFERLYGVQ-NH2 (disulfide 5-15 (inferred)) [[VEGF-Peptide] SEQ ID NO:74], the IC50 was found to be 4 nM. For the molecule Ac-VEPNCDIHVMWVWECFERLMREL-NH2 (disulfide 5-15 (inferred)) [[VEGF-Peptide] SEQ ID NO:63], the IC50 is 24 nM. Regarding Ac-VEPNCDIHVMWVWECFERLMKEL-NH2 (disulfide 5-15 (inferred)) [[VEGF-Peptide] SEQ ID NO:65], the IC50 turned out to be 18 nM. Take Ac-VEPNCDIHVMWVWECFERLMGLT-NH2 (disulfide 5-15 (inferred)) [[VEGF-Peptide] SEQ ID NO:59]: the IC50 turned out to be 25 nM. Regarding Ac-VEPNCDIHVMWVWECFERLYGGF-NH2 (disulfide 5-15 (inferred)) [[VEGF-Peptide] SEQ ID NO:56], the IC50 amounted to 26.2 nM.

Consider Ac-VEPNCDIHVMWVWECFERLYGLY-NH2 (disulfide 5-15 (inferred)) [[VEGF-Peptide] SEQ ID NO:44], for which the IC50 was found to be 54.6 nM. As for Ac-VEPNCDIHVMWVWECFERLYGPL-NH2 (disulfide 5-15 (inferred)) [[VEGF-Peptide] SEQ ID NO:76], the IC50 worked out at 2.3 nM. On the same count and under the same terms, the value for Ac-VEPNCDIHVMWVWVCFERLYGGG-NH2 (disulfide 5-15 (inferred)) [[VEGF-Peptide] SEQ ID NO:43] was 66 nM; that for Ac-VEPNCDIHVMWVWECFERLMRLT-NH2 (disulfide 5-15 (inferred)) [[VEGF-Peptide] SEQ ID NO:46] was 44.1 nM. As for Ac-VEPNCDIHVMWVWECFERLYGPF-NH2 (disulfide 5-15 (inferred)) [[VEGF-Peptide] SEQ ID NO:77], the IC50 is 1.8 nM. The same measure, in the same setting: next, Ac-VEPNCDIHVMWVWECFERLFKEA-NH2 (disulfide 5-15 (inferred)) [[VEGF-Peptide] SEQ ID NO:53]: 31.4 nM. For the molecule Ac-VEPNCDIHVMWVWECFERLYGLE-NH2 (disulfide 5-15 (inferred)) [[VEGF-Peptide] SEQ ID NO:75], the IC50 was 3 nM. With Ac-VEPNCDIHVMWVWECFERLMK-NH2 (disulfide 5-15 (inferred)) [[VEGF-Peptide] SEQ ID NO:62], the IC50 amounted to 25 nM. On to Ac-VEPNCDIHVMWVWECFERLLK-NH2 (disulfide 5-15 (inferred)) [[VEGF-Peptide] SEQ ID NO:67], for which the IC50 worked out at 10.1 nM. As to Ac-VEPNCDIHVMWVWECFERLYG-NH2 (disulfide 5-15 (inferred)) [[VEGF-Peptide] SEQ ID NO:47], the IC50 is 43.3 nM. Take Ac-VEPNCDIHVMWVWECFERLVK-NH2 (disulfide 5-15 (inferred)) [[VEGF-Peptide] SEQ ID NO:48]: the IC50 was 42.4 nM. In the case of Ac-VEPNCDIHVMWVWECFERLYK-NH2 (disulfide 5-15 (inferred)) [[VEGF-Peptide] SEQ ID NO:58], the IC50 worked out at 25.1 nM.

As for Ac-VEPNCDIHVMWVWVCFERLMK-NH2 (disulfide 5-15 (inferred)) [[VEGF-Peptide] SEQ ID NO:38], the IC50 is 92.6 nM. Consider Ac-VEPNCDIHVMWVWECFERLIK-NH2 (disulfide 5-15 (inferred)) [[VEGF-Peptide] SEQ ID NO:57], for which the IC50 stood at 25.4 nM. For the molecule Ac-VEPNCDIHVMWVWECFERLMR-NH2 (disulfide 5-15 (inferred)) [[VEGF-Peptide] SEQ ID NO:49], the IC50 stood at 34.5 nM. On to Ac-VEPNCDIHVMWVWECFERLY-NH2 (disulfide 5-15 (inferred)) [[VEGF-Peptide] SEQ ID NO:41], for which the IC50 worked out at 69.9 nM. Consider Ac-VEPNCDIHVMWVWECFERL-NH2 (disulfide 5-15 (inferred)) [[VEGF-Peptide] SEQ ID NO:64], for which the IC50 was 24 nM.

The target in a further assay is T1, human angiopoietin-2 protein. As to the kind of experiment: competitive ELISA: Tie-2-Fc binding to coated Ang-2; T. The procedure: Plates were washed three times with washing buffer (0.1% Tween 20, PBS, pH 7.4) and blocked with Superblock (Scytek), […] at room temperature (“RT”) for 1 hour. […] Plates were washed 3 times with washing buffer. […] Following incubation, 50 ul of 1:5,000 dilution of goat anti-mouse IgG-HRP in Superblock was then added and incubated at RT for one hour. After washing 3 times, […] was added, and incubated for 3-5 minutes. Color development was monitored and stopped with 25 μl of 2 M H₂SO₄. OD450 nm with a correction wavelength of 540 nm was measured.
Molecule B1 gave an IC50 of 370 nM. As to QKYQPLDELDKTLYDQFMLQQG-NH2 (not fully specified (N-terminus), also called 4026 T) [Compound 4026, peptide plus linker (T)], the concentration for half-maximal inhibition (IC50) amounted to 32.3 nM.

For B2, the IC50 was 29 nM.

Molecule B3 returned an IC50 of 214 nM. For the molecule B4, the IC50 amounted to 177 nM.
